Five substances from US7445894B2, “Compositions and methods for detection and isolation of phosphorylated molecules” (priority 2002, dated 2008) can be followed below.

Data set [1] concerns the target pp60 c-src (pY), phosphorylated form of the pp60 c-src peptide. The data set can be described thus: peptide microarray on HydroGel slides; primary antibody, then Zenon One Alexa Fluor 647 mouse IgG labeling reagent; 632.8 nm excitation / 670 nm emission.
Data set [2] shares this target. Briefly: peptide microarray on HydroGel slides; primary antibody at 1.5 µg/mL, then Alexa Fluor 647 goat anti-mouse; 632.8 nm excitation / 670 nm emission.
Data set [3] has as its system T1, Abl peptide (New England Biolabs), substrate for Abl tyrosine kinase.
T1 sequence: EAIYAAPFAKKK

Data set [4] concerns Bovine muscle myosin light chain.
In data set [5] the test system is T2, Glycogen synthase 1-10 peptide (Calbiochem).
T2 sequence: PLSRTLSVSS

The subject of data set [6] is T3, crosstide, biotinylated synthetic peptide.
T3 sequence: GRPRTSSFAEG

In data set [7] the test system is T4, Kemptide (non-phosphorylated).
T4 sequence: LRRASLG

The subject of data set [8] is phosphopeptides. The data set can be described thus: Quantitative binding of phosphopeptides using streptavidin ferrofluid particles. To be noted: 550 pmoles phosphopeptides, particles saturated with Compound 9, charged with GaCl3, eluted with 0.15 M ammonium hydroxide. Here is the method:
Quantitative binding of phosphopeptides was accomplished using labeled ferrofluid particles. Streptavidin ferrofluid particles were labeled with Compound 9 until saturated. After washing away unbound dye, the particles were charged with 0.1 M GaCl3, then washed with 0.1 M NaOAc, pH 4.0. 100 μL of magnetic particles (4 mg/mL) was added with standard peptide mix containing 550 picomoles of phosphopeptides. The mixture was incubated for 20 min while gently vortexing. The particles were isolated using a magnetic separator and the resulting supernatant was removed. The beads were washed 2× with 100 μL 100 mM NaOAc, pH 4.0 and the phosphopeptides were eluted with 0.15 M ammonium hydroxide. Greater than 95% of the phosphopeptides (550 pmoles) were isolated.

Abl Protein Tyrosine Kinase (NEB), sequence (P00520 whole entry): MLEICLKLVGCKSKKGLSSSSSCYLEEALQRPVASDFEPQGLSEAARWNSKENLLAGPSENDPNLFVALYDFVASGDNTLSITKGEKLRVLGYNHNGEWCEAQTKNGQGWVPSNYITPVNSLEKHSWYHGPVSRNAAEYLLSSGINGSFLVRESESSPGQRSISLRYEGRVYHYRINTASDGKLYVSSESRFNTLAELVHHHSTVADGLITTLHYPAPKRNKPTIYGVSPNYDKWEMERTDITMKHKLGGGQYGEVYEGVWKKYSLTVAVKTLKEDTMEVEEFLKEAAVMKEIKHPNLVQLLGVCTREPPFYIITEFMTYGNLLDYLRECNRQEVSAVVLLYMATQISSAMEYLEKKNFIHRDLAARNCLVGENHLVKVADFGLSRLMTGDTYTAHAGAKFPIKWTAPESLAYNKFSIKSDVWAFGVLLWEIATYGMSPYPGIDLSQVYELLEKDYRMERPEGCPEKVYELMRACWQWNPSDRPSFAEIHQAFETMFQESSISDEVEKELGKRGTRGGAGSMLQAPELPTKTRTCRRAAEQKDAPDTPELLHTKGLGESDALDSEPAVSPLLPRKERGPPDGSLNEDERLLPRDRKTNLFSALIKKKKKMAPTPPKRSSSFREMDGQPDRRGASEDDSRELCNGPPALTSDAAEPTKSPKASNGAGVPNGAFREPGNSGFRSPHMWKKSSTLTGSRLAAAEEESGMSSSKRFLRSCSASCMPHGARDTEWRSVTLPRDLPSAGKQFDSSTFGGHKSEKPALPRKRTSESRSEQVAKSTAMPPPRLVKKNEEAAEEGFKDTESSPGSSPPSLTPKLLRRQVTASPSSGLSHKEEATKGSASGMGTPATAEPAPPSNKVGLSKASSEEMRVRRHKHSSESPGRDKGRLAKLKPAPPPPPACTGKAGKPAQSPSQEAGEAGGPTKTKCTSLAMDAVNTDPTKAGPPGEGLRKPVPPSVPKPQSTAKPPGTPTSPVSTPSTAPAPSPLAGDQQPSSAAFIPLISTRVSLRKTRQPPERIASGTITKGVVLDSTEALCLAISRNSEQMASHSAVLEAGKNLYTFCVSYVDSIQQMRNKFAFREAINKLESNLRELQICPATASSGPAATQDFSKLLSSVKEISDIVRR
Akt/Protein Kinase B, sequence (P31749 whole entry): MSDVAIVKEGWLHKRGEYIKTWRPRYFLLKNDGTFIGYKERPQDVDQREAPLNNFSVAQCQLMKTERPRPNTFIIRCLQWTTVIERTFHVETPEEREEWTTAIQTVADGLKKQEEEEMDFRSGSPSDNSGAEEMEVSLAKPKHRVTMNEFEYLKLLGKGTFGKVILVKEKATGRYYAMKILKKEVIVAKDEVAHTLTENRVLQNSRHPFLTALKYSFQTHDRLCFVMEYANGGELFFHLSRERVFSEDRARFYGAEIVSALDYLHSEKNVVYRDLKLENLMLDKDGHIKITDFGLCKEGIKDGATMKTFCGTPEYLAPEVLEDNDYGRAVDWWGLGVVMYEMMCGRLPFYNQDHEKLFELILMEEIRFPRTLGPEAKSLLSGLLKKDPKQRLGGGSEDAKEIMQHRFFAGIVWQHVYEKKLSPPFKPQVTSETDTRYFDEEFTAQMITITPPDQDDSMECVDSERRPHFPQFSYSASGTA

Turning to “phosphotyrosine monoclonal antibody P-Tyr-100 (Cell Signaling Tech.)”, the sensitivity of detection in data set [1] came out at 0.65 pg; in data set [2] it was 5.2 pg.

As for “Calcium-Calmodulin-Dependent protein Kinase II (New England BioLabs)”, the “fluorescent labeling (Compound 2/Ga3+) of arrayed peptide after kinase reaction; Abl peptide not labeled” value in data set [3] is listed as “glycogen synthase peptide is the only fluorescently labeled peptide on the array”. The “phosphoprotein stain signal (Compound 2/Ga3+) of the gel band, kinase reaction against no-enzyme control” value in data set [4] is given as “the signal from the band in the lane corresponding to the reaction containing the enzyme 3.4-fold greater than the no-enzyme control”. In data set [5], the “fluorescent labeling (Compound 2/Ga3+) of arrayed peptide after kinase reaction” value is “glycogen synthase peptide is the only fluorescently labeled peptide on the array” and the “sensitivity of detection after kinase reaction” value is listed as “Sensitivity of detection after kinase reaction is at least 0.375 ng or 0.35 pmol”.

With Akt/Protein Kinase B, in data set [6], the “fluorescent signal (Compound 2/Ga3+) of peptide charged beads, exposed to kinase against not exposed” value is given as “The fluorescent signal of the peptide charged beads exposed to Akt/PKB kinase was found to be 2.2-fold higher, with no overlap in standard deviation, than the control peptide charged beads not exposed to enzyme”.

On to Abl Protein Tyrosine Kinase (NEB), for which, in data set [3], the “fluorescent labeling (Compound 2/Ga3+) of arrayed peptide after kinase reaction” value was “Abl peptide substrate is the only fluorescently labeled peptide on the array”; the “fluorescent labeling (Compound 2/Ga3+) of arrayed peptide after kinase reaction with ATP-γ-S or ATP” value is recorded as “Abl peptide substrate is the only fluorescently labeled peptide on the array”; the “sensitivity of detection after kinase reaction” value is given as “Sensitivity of detection after kinase reaction is at least 0.18 ng or 0.14 pmol”; the “sensitivity of detection after kinase reaction with ATP (control)” value is 0.325 pg of Abl peptide, in the control reaction using ATP, was labeled and detected. For the same substance, the “sensitivity of detection after kinase reaction with ATP-γ-S” value in data set [3] was “Sensitivity of detection after kinase reaction was 2.6 pg of the peptide labeled using ATP-γ-S”. For the same substance, in data set [7], the “fluorescent labeling (Compound 2/Ga3+) of arrayed peptide after kinase reaction; Kemptide not labeled” value is “Abl peptide substrate is the only fluorescently labeled peptide on the array”. Further, the “fluorescent labeling (Compound 2/Ga3+) of arrayed peptide after kinase reaction; Glycogen Synthase 1-10 not labeled” value in data set [5] was “Abl peptide substrate is the only fluorescently labeled peptide on the array”.

On to “4-(N-(5″-biotinylaminopentyl)aminocarbonyl)-rhod tetrapotassium salt [Compound 9]”, for which the phosphopeptides isolated entry in data set [8] is on record as “Greater than 95%”.
